Assay [1] concerns the target T1, human CD20 (human, UniProt P11836 1-297).
T1 construct: whole, on cells; also called WT CD20; wild-type (WT) CD20
T1 sequence (looked up): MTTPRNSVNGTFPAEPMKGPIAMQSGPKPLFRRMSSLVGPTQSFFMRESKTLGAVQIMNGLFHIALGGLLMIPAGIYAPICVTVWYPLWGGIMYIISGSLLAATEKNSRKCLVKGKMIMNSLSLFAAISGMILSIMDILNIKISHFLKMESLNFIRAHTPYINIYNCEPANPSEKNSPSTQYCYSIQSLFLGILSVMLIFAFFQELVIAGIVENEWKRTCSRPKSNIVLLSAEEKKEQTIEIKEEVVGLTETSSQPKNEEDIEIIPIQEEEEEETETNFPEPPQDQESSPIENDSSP
As to the kind of experiment: flow cytometry on CD20-positive NS/0 cells, control antibody.

In assay [2] the target is T1, human CD20. Put plainly: flow cytometry blocking assay on CD20-NS/0 cells: pre-incubation with the control, then competitor rituximab-FITC 10 µg/ml. On the technique in general: A flow cytometer gives signals particle by particle.
In assay [3] the target is T1, human CD20. As to the kind of experiment: flow cytometry, FITC-conjugated antibodies on Daudi and Raji cells.

human IgG1 control antibody displayed a Binding CD20-NS/0 (mean fluorescence) (mean fluorescence) in assay [1] of 14. Also, the Blocking of rituximab (signal of rituximab-FITC left after pre-incubation) in assay [2] turned out to be 179.

Consider human IgM control antibody, for which the Binding CD20-NS/0 (mean fluorescence) (mean fluorescence) in assay [1] turned out to be 9. In assay [2], this molecule displayed a Blocking of rituximab (signal of rituximab-FITC left after pre-incubation) of 182.

B1: 11B8 (antibody, V domains shown)
VH: EVQLVQSGGGLVHPGGSLRLSCTGSGFTFSYHAMHWVRQAPGKGLEWVSIIGTGGVTYYADSVKGRFTISRDNVKNSLYLQMNSLRAEDMAVYYCARDYYGAGSFYDGLYGMDVWGQGTTVTVSS
VL: EIVLTQSPATLSLSPGERATLSCRASQSVSSYLAWYQQKPGQAPRLLIYDASNRATGIPARFSGSGSGTDFTLTISSLEPEDFAVYYCQQRSDWPLTFGGGTKVEIK
notes: also called human recombinant monoclonal IgG1,κ anti-CD20 antibody 11B8
For B1, the binding result in assay [3] is “binds”.

These data come from US20080260641A1 (Genmab, published 2008).
